{
  "source": "paper PMC6200408",
  "origin": "cited, not measured here",
  "molecular_target": "cubilin (Homo sapiens) (UniProt O60494)",
  "sequence (O60494 36-3623)": "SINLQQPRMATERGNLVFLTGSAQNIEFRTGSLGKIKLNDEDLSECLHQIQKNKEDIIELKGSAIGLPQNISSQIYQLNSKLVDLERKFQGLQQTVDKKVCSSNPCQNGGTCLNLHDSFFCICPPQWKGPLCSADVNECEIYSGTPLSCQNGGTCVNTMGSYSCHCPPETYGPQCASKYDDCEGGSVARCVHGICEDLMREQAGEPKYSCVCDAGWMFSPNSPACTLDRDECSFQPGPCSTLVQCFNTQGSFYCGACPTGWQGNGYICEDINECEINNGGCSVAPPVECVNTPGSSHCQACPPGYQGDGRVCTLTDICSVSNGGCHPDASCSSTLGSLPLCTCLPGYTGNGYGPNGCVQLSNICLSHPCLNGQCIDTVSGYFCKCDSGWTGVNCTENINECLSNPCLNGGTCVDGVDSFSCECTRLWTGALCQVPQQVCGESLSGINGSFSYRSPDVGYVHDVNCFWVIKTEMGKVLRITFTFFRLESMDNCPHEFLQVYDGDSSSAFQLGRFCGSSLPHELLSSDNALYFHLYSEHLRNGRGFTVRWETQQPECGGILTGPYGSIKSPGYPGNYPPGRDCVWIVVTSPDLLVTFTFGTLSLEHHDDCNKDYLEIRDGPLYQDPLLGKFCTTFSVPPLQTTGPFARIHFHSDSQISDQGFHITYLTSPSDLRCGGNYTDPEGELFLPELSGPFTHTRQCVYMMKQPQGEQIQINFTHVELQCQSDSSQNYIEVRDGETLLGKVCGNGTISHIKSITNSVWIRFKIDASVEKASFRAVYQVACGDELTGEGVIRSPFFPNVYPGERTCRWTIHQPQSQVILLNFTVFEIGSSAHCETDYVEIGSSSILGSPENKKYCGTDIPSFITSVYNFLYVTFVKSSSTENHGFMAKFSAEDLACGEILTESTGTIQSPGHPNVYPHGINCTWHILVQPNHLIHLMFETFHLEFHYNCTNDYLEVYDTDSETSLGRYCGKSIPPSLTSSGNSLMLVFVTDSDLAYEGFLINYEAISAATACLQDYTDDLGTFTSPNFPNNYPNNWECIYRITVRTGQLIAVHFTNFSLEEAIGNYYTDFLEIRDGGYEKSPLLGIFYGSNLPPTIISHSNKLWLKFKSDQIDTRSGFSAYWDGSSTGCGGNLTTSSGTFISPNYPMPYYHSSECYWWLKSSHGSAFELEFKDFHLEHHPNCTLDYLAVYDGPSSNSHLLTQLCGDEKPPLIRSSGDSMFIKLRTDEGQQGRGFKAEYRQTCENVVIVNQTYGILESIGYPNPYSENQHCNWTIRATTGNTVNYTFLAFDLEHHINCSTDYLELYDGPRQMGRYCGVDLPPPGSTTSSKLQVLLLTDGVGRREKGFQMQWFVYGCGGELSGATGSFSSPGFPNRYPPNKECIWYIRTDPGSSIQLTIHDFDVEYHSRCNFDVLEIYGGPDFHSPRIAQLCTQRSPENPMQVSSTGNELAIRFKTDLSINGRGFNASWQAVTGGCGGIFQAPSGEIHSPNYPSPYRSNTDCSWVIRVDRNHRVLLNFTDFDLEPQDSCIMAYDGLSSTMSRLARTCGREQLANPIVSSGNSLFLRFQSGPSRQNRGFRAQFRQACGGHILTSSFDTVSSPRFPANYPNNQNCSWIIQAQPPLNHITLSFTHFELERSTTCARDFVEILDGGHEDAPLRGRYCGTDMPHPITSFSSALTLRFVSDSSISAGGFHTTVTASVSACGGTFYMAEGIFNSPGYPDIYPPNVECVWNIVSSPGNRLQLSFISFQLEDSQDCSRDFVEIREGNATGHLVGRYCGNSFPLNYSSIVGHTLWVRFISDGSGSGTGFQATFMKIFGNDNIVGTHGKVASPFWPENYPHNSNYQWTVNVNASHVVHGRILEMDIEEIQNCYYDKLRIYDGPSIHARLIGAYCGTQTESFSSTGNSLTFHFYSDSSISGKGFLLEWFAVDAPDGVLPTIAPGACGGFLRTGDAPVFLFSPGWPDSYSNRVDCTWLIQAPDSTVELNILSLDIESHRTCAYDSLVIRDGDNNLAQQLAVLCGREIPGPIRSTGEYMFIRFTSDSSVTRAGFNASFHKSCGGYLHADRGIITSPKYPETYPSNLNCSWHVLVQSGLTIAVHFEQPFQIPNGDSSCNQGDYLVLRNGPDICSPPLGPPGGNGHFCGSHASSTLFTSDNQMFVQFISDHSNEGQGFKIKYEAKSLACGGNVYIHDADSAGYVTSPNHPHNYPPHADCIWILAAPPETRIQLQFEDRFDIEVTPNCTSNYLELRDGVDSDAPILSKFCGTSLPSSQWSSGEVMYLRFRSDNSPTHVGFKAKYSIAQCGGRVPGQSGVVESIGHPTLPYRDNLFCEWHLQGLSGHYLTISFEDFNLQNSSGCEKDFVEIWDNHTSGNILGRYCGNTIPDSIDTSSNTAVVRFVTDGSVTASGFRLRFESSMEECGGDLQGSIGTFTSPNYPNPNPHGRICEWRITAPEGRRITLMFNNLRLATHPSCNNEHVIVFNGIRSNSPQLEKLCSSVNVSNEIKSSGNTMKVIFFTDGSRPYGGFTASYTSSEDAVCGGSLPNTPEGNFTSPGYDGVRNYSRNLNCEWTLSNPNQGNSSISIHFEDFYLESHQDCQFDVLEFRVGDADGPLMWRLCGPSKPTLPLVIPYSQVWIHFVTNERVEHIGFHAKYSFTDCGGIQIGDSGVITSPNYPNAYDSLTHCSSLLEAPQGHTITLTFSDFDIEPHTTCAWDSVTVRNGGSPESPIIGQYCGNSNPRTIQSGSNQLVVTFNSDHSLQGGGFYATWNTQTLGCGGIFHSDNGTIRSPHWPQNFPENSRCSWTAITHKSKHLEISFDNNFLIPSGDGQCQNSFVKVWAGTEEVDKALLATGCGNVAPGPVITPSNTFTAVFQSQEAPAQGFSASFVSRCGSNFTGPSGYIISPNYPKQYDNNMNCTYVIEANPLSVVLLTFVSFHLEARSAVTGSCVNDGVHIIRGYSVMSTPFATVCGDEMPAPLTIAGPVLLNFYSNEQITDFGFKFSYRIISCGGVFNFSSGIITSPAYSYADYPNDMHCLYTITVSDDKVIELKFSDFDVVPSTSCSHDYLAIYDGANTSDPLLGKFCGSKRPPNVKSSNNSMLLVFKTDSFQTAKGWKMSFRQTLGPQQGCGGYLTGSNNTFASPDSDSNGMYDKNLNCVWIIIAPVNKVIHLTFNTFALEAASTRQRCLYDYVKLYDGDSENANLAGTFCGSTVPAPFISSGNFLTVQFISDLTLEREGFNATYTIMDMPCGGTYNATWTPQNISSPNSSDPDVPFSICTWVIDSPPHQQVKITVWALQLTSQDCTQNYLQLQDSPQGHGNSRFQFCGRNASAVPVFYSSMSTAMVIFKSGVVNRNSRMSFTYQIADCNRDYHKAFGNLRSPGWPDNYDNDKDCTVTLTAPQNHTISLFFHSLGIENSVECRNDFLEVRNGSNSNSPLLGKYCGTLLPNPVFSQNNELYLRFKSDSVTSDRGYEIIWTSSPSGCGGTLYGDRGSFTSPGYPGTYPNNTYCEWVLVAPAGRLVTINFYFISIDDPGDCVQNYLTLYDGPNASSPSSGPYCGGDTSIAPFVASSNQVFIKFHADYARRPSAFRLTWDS",
  "data": [
    {"substance": "albumin (from UniProt P02768)", "values": [
      {"measurement": "Kd", "value": 0.6, "unit": "pM"}
    ]}
  ]
}
